Measurements taken from patent US20210155689A1 (SHANGHAI PHARMAEXPLORER, published 2021).

B1: 556F6B8 (mouse antibody purified from hybridoma) (antibody, V domains shown)
VH: RVQLKQSGPGLVQPSQSLSITCTVSGFSLIKYGVHWVRQSPGEGLEWLGVIWRGGITDYNAAFMSRLSITKDNSKSQVFFKMNSLQADDTAIYYCAKWDGPLAMDYWGQGTSVTVSS
VL: DIVMTQSHKFLSTSVGDRVSITCKASQDVGTTVAWYQQKPGQSPKLLIYWASTRHTGVPDRFTGSGSGTDFTLTISNVQSEDLADYFCQQYSSYPYTFGGGTKLEIK
notes: also called mAb123-556F6B8
B2: 405B8H3 mouse-human chimeric antibody (antibody, V domains shown)
VH: QVQLQQSGAELVRPGASVTLSCKASGYTFTDYEMHWVKQTPVHGLEWIGATDPETGNSAYNQKFKGKAIMTADKSSSTAYMELRSLTSEDSAVYYCISTGWNDWGQGTSLTVSS
VL: DIKMTQSPSSMYASLGERVTITCKASQDINSYLSWFQQKPGKSPKTLIYRADRLLDGVPSRFSGSGSGQDYSLTISSLEYGDMGIYYCLQYDEFPYTFGGGTKLEIK
notes: also called mAb103-405B8H3
B3: 105F1E10 mouse-human chimeric antibody (antibody, V domains shown)
VH: EVQLQQSGPELVKPGASVKMSCRASGYTFTDFKMHWMKQSHGKSLEWIGYIAPNNGGTAYNQKFRGKATLTVNESSNTAYMELRSLTSEDSAVYYCVDWDDVDYWGQGTTLTVSS
VL: DIKMTQSPSSMYASLGERVTITCKASQDINSYLSWFQQKSGKSPKTLIYRANRLVDGVPSRFSGSGSGQDYSLTISSLEYEDMGIYYCLQYVEFPLTFGAGTKLELK
notes: also called mAb009-105F1E10
B4: 409D4E10 mouse-human chimeric antibody (antibody, V domains shown)
VH: QVQLQQSGAELVRPGASVTLSCKASGNTFTDYEMHWVKQTPVHGLEWIGATDPETDNTAYNQKFKGKAILTTDKSSSTAYMELRSLTSEDSAVYYCITSGWNDWGQGTSLTVSS
VL: DIKMTQSPSSMYASLGERVTITCKASQDINSYLSWFQQKPGKSPKTLIYRANRLLDGVPSRFSGSGSGQDYSLTISSLEYEDMGIYYCLQYNEFPYTFGGGTKLEIK
notes: also called mAb112-409D4E10
B5: 409B11E12 mouse-human chimeric antibody (antibody, V domains shown)
VH: QVQLQQSGAELVRPGASVTLSCKASGYTFTDYEMHWVKQTTVHGLEWIGATDPETSYSAYNQKFKGKAILTADKSSSTAYMELRSLTSEDSAVYYCIATGWNDWGQGTSLTVSS
VL: DLKMTQSPSSMYASLGERVTITCKASQDINSYLSWFQQKPGKSPKTLIYRANRLLDGVPSRFSGSGSGQDYSLTISSLEYEDMGIYYCLQYDEFPYTFGGGTKLEIK
notes: also called mAb104-409B11E12
B6: 556F6B8 mouse-human chimeric antibody (antibody, V domains shown)
VH: RVQLKQSGPGLVQPSQSLSITCTVSGFSLIKYGVHWVRQSPGEGLEWLGVIWRGGITDYNAAFMSRLSITKDNSKSQVFFKMNSLQADDTAIYYCAKWDGPLAMDYWGQGTSVTVSS
VL: DIVMTQSHKFLSTSVGDRVSITCKASQDVGTTVAWYQQKPGQSPKLLIYWASTRHTGVPDRFTGSGSGTDFTLTISNVQSEDLADYFCQQYSSYPYTFGGGTKLEIK
notes: also called mAb123-556F6B8; 556F8B8

Target: T1, human LAG-3 (full length, on the cell surface) (human, UniProt P18627 23-525)
T1 construct: Full-length human LAG-3 expressed on cells; also called HEK293-hLAG-3; HEK293 cells transfected with LAG-3 gene
T1 sequence: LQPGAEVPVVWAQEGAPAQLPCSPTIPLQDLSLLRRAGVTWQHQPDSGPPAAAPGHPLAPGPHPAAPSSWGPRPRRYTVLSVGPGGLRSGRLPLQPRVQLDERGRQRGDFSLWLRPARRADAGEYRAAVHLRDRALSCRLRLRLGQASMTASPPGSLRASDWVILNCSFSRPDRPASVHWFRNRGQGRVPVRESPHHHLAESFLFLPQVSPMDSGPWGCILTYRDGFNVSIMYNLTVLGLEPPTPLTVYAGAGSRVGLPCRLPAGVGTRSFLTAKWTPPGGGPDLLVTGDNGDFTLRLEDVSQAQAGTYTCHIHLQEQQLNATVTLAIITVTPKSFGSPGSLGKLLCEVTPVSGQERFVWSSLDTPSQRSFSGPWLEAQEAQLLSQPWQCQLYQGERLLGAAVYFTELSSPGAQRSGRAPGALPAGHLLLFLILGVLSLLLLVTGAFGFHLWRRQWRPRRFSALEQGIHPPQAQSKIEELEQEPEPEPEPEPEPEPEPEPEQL
Assay: FACS, HEK293-hLAG-3; 1.600 nM
Description: (§1) The pIRES plasmid with the monkey-derived full-length gene was transfected into the HEK293 cell line to construct a HEK293 stable cell line containing monkey LAG-3 (herein referred to as HEK293-cLAG-3 stable cell line). The HEK293-hLAG-3 stable cell line and HEK293-cLAG-3 stable cell line were expanded in a T-75 cell culture flask to a 90% confluence. The medium was aspirated, and the cells were washed with HBSS (Hanks' Balanced Salt Solution) 1-2 times, then treated with a enzyme-free cell dissociation fluid (Versene solution: Life technology) and the cells were collected. The cells were washed with HBSS buffer for 1-2 times. After counted, the cells were diluted with HBSS to 1-2×10⁶ cells per ml, added with 1% goat serum blocking solution, incubated on ice for 20-30 minutes, and then washed with HBSS for 2 times by centrifugation. The collected cells were suspended in the FACS buffer (HBSS+1% BSA) to 2×10⁶ cells/ml, added as 100 microliters per well to a 96-well FACS reaction plate, added with 100 microliters per well of the antibody sample to be tested, incubated on ice for 1-2 hours. The plate was washed twice with the FACS buffer by centrifugation, added with 100 microliters of fluorescent (Alexa 488)-labeled secondary antibodies per well, and incubated on ice for 0.5-1.0 hours. The plate was washed 2-3 times with FACS buffer by centrifugation, added with 100 μl fixative solution (4% Paraformaldehyde) per well to suspend the cells. 5-10 minutes later, it was washed 1-2 times with FACS buffer by centrifugation. The cells were suspended with 100 microliters of FACS buffer, FACS (FACSCalibur, BD) was used for detection and the results were analyzed.

Work on B1 yielded a Mean fluorescence intensity of 43.5 MFI.

Target: T2, human LAG-3 on cells (HEK293-hLAG-3 stable cell line) (human, UniProt P18627 23-525)
T2 sequence: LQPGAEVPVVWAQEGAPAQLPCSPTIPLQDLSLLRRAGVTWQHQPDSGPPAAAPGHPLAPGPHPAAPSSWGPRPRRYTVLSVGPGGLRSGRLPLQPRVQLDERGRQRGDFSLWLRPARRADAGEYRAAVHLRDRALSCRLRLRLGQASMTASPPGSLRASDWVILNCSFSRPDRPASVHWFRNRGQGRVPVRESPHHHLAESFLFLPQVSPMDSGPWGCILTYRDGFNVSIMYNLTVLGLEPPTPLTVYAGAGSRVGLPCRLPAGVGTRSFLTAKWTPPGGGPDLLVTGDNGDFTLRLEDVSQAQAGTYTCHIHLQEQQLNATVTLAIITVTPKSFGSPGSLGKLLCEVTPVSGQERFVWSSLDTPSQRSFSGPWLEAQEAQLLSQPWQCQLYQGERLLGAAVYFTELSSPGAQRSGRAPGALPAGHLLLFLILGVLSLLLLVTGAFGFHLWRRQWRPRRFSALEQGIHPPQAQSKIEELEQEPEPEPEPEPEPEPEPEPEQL
Assay: FACS, HEK293-hLAG-3, antibody 200.000 nM
Description: as §1

Compared with B2, B3 is higher in Mean fluorescence intensity: 169 for the first, 175 for the second.

Compared with B4, B5 is higher in Mean fluorescence intensity: 151 for the first, 171 for the second.

B6 gave a Mean fluorescence intensity of 125.
